Assay: soluble on expression in E. coli; label from the status in PepcDB or PDB records

Soluble on expression in E. coli, not soluble:
MGSDKIHHHHHHMATTVDTGDRRDNGKSVRRKLPRGAHAEIGNVDRDPVELLKISSEGRVRRLVPLRYGRMIESPFAFYRGSAIVQAHDLAGTPNSGLHIQICGDCHLANFGGFATPERALLFDLNDFDETSRGPWEWDLKRLAASFVVAARHLRHKQGVADDLVYQLVRSYQARMQGYGEMGILDTWYDHITFERLLGEETSPNIQRRIRRGMERAADRTSEALLPKLAERVGDKWTILDAPPAVFHVRGAHTLFDADDDWMTAKDIQAAAEKVYKEYLGTLAPDRQRLLSHFTLHDRAFKVVGVGSVGTRCMIQLMIDSHGKPMFLQIKEATRSVVARYFKGPAVSHDGRRVVEGQRLMQAASDLFLGWTKGPFGRDFYVRQLRDMKLSPQIELMDVEALGRYGALCGWVLARAHAKAGGLAAEISGYLGTSDRMAEVMVGYSNSYADQVEKDYERFVAACRSGRLEARTDADMAADFRV
MGSDKIHHHHHHMAVSELQVQSALKELIDPNTHKDYVTTKSARNIKIDGDAVSVDIALGYPAQSQLATIKQQVEDKLKTLDGVSKATANVSFKIVSHSVQRGVKLIPNVKNIIAVASGKGGVGKSTTAVNLALALAAEGARVGMLDADIYGPSQPTMLGITDKPESTDGKNLDPLIGHGIQAMSIGFLIDVETPMVWRGPMVTQALEQLLNNTNWNELDYLVVDLPPGTGDIQLTLAQRVPVTGAVIVTTPQDIALIDARKGLKMFEKVGIPIIGVVENMSLHICSNCGHEERIFGEGGGERMCRDYNVEFLGALPLDSSIRADTDSGKPSVVSDPDGRVTEIYKQIARRVAVKIGETAVDHSAKFPNIVISNT
MGSDKIHHHHHHMAWIKTVAFGDATGKLRKLYDRVTGPGGNVDNIMMAHSLRPHTMEGHMALYKNVLHHSGNELPKWVLEMIGVWVSSLNGCAYCVEHHFAGLKRLMRDDARAEAIRAAIEARDIKALPVRACEMAAMDYARKLTQAPTEMMAADLEPLRAEGLSDGHILEINQVVAYFAYANRTVLGLGCSTEGDVLGLSPGNSDDPTDWGHA
MGSDKIHHHHHHMAYIKRTIETTIENAAKMFSTVLITGARQVGKTTVLKHITEDISYLTLDDPILLLNAFEEAGSFFKSTPPPVIIDEIQYAPNLFPYIKMIADENGKRGQFYLTGSQQFKMMKNVSESLAGRIGIINLLGLSLREIKGDADFNKAFIPTESYLETRRLSAKELNYKEIWKIIYKGSMPAMYADELDWQLFYGSYTKTYLERDVRELTQVGDELKFIKFMTAMASRTSQMLNLTSIANEVGISVPTADRWLSILVSSNIVYLLKPYYNNIMKRAVKTPKLYFLDTGLAAYLTKWNSPDVIEAGAMSGAFFETFVLAEILKGYYNAGILEPALYYYRDKDAKEIDIILEENGTLYPIEIKKTANPSKEHIANFSVLDRLKDMKIGTGCVICMYDKVIHINDNNVSIPVTWL
MGSDKIHHHHHHMCIMASCLSPNWSVFDIDQSQTLQVAVQEAHARSQPLAIRGGGSKTFYGRQTPACDLLDLGGHRGIIDYAPNELFITLRAGTSLQALEAQLAEAGQMLPFEPPHFGPAATIGGTLACGFSGPRRPYAGSARDMVLGMRILNGQGEILRFGGQVMKNVAGYDVSRLMVGALGTLGVLLEVSLKVLPRPDSTVTLVWPMDPVTAVQRMNDWAGQPLPLSATAYDGEHLYIRLSGTGSAVRAAQTRLGGERLPDAEAAAFWVALREQRNDFFQGDAPLWRLAVAPATPPLPLGDQTLIEWGGGQRWLRGALDATALRQLAAEHGGHATLFRGGNRRGEVFHPLAPPLLAMQQRLKAAFDPRGILNSGRLYATL
MGSDKIHHHHHHMCRLIGYLGNAIPLDELLYKQEHSLYQQSYSPLELKSGVVCADGVGVGWYDQVGKPFIYRNTIPMWNDPNLEELSNYVQSTCTVGYARLAGIGESLDISNCQPFRSDQLLFVHNGEISNFQQTLYRPIRESLSDATYRLIKGTTDSEHIFALLVQMWQSSPDSTLFWALGATLEKLTELASEYNTSFSANLIVSDGEAIAAIRYAYRTQAPTLYWSYDALKHPNQVIVASEPLSNNQNWTAFDEQSMLFFQAQSLEPRISLLKKFSAIGV
MGSDKIHHHHHHMCRWLAYTGNPIPLETVLFRAKHSLIDQSLHSRMGATTTNGDGFGIGWYGQPDEVPFIYRCVSPAWNDRNLREAARAIRSPLFVAHVRSATDTPVQETNCHPFRRGRWLFAHNGLIRRYHTLRRDLMMRIDPGLFASIEGSTDSEVMFHLALTFGLEHDPLAALERMAGAIEDAGAHHRVDAPLNMTVCATDGEQVVAVRYSSEHDSRSLFHSTSFRHLHELYPHDPRIRAIGDDAFLVLSEPLVDLHDAWEKIPESTAIIARRGDIRQVPFQPRRST
MGSDKIHHHHHHMDDLRDSLDRIKSICSEIVVQFESSDVAESLKALQKAVNEAAKSWSGSWLGYHSRVYYNQLQPVPPGARFSQEWGLSDGLSNETRGDWCEYDFDSIYNILKSKAINFSLEQLNELANYANEEIPDLREELISIIFSCLASGEDTYLDRLKQEAELCKTSSVGEFVDYLRGGGQFFSRDRVAVLSGSQTPPHIYLQAQLLAVQSPSTVAKSLKKIANRLALHLTNKSRTYMYSSQPGTHVFIGHGHSPLWRDLKDFISERLKLPWDEFNRLPIAGINNTVRLSQMLDSAAIAFLIMTGEDEQSDLKLRARMNVIHEAGLFQGRLGFRRAILLLEEGCENFSNVDGIGYINFPRGNIKACFEDVRMVLEREGLV
MGSDKIHHHHHHMDGHRLIQPLHARTADVGGIPVNRVMPQRGRRLIGAWCFLDHAGPATFTVGAGGMRVGSHPHIGLQTFTWMLAGEIMHHDSLGNAQRIRPGELNLMTAGRGIAHTEESILESGQLHAAQLWITLPHATRHTSPRFDHYPDLPRWSEQGTDVTLLRGDFQGREAPTHAFSPLVGLDIVSPDATQLTLPARTDFEYGVLLLEGSLTIERDRFDTNEMAYLGSGLDEITLAMEAGTRALMLGGEPLNEDILIWWNFVGHSKAEIAEAQKEWEEWEAGSDRFGDVPEFDGERIMPPPIPWKVTAN
MGSDKIHHHHHHMDGSSQEGEKKKKVYEVKTFPISFALGENQENITITTQTPSKPSKEKKFHKARMLHKQGKIAEAKKYYQQLINEGFNDHRVFSNYGVILAQLGKLKEAEISTRKAIEMQPNYAEAHSNLGIILNDLGKLEEAEICQRKAIKIKPNLTGAAWNLYGLANTIKEAEERVNQVLKIDENHVEAQLHLSALKLHQGDQSLFDNLTKSTHKDHAITRSIKWVANLPKLPELFFYRWALFDSMTKKSKKDRPFYEFGVWRGASFRYLINTFKKGYGFDTFEGLPEDWHHEAQGTYSAEGIIPNIEGGEFIAGKFEDTLPTFYSKPRPMASIINFDADLYSSTLCALNCSKPVIDKDTILIFDEFIISENWEQDEYKALNEFCSKNNLTYEVLAVSYFEKQVAVKLIGV
MGSDKIHHHHHHMDINLYSDRLKLRNLLSRDWDFFLRLHLDKDVNQYIRSIEPESDIVAKFEQRKAVWLFESGDWLTLVIERIDNSQAVGLIGFRCDDAQLRRAEVGYLIAPEQQGLGFASESLLAVTDWGALQFSMHKYIGICAHENTASRKVLEKVGFVLEGTLKQNNCVDGKWSDDCYMGLLTAQRT
MGSDKIHHHHHHMDITQLKMFQTVVECGTMAKASLQLHCVPSNITTRIKQLEEELGAPLFYREGKSLKLTPSGEIFLDYCHKILALCDEAKRSIHPDAPPSGPLKIGAIESSATTRLPNLLAKYHQRYPEVSIQIITGTWKQLLVDISQHKLDGAIVAGNIEFPMLNKLSIYQEDMVLIASHSLGEIRCQEDLIGKEIFMWTEGCPYRAALEEWLKLKNISLPITSITSYATIIGCVSAGSGVALVPKSIYEQYKNLAHIQSYKFEYLAFMQNHFFWHKNVSNHKARDMFIELIKSEFCL
MGSDKIHHHHHHMDKIYVLDTNVLLQDPLSIFSFETNEVVIPAVVLEEVDSKKRYMDEVGRNARYVSKLIDKFREIGKLHESIPLENGGTFRIELNHRSFVQLQDIFVEKTNDNRILAVAKNLSLEEQEKEDGKSVILVSKDVLVRVKADAIGLKAEDYLSDRVIEVENIYSGFLEGYISKEQLDYFYEKGELPLSEIANHPFYPNQFVVMKDALGGSSSALGIVDHLGKKVKKLIFHNEQVWGIRPRNVQQIMGLELLLREDIPLVTLTGKAGTGKTLLALASGLMQTEDLGLYKKLLVARPIVPVGKDIGYLPGEKEEKLRPWMQPIFDNLEYLFNTKKPGELDAILAGMGSIEVEALTYIRGRSIPDQFIIIDEAQNLTKHEVKTILTRVGEKSKIVLMGDPQQIDHPYLDEYNNGLTYVVEKFKEQRISGHVKFVKGERSNLAQLAADLL
MGSDKIHHHHHHMDKLLFGISGIPNGSGNEKFTYETGIDYLKSIGLDAMELPFVRSVNITNKNREGILNKKHEKDFYLSAHGSYFINLNAEENEKQEASLKRIVSGADALKSVEGKSLIFHPGFYLKDSKEETFNTIKENLKKLPDIGVDYRLETTGKPTQFGSLEENVALASEVKTCKLCIDFCHLHARYNGLFKTIEDFDKVLSYVGEKLGEAALNDMHIHMSGINYGIKGEKNHLPFKESDFPYEKCIKSFVKFNIKGCIICESPLLEKDSLLLKSIYEAS
MGSDKIHHHHHHMDKYTALIHDENFSTLTLNVSRYPKSLAYWEKLLNYIVKASAPICKSTEPQLLKLIRCTYSSMLNEFPYLENYYIDFALLEYKLGNVSMSHKIFQRGLQAFNQRSLLLWTSYLKFCNNVISHQKQLFKKYETAEEYVGLHFFSGEFWDLYLEQISSRCTSSKKYWNVLRKILEIPLHSFSKFYALWLQRIDDIMDLKQLSQLTSKDELLKKLKIDINYSGRKGPYLQDAKKKLKKITKEMYMVVQYQVLEIYSIFESKIYINYYTSPETLVSSDEIETWIKYLDYTITLQTDSLTHLNFQRALLPLAHYDLVWIKYSKWLINSKNDLLGAKNVLLMGLKFSLKKTEIIKLLYSVICKLNEYVLLRNLLEKIESSYSDNVENVDDFEIFWDYLQFKTFCQNSLYSSRYSDSQSNGLLNKELFDKVWKRLSCKEKKSGQEILLNNLVQFYSKDTVEFVEKNIFQKIIEFGWEYYLQNGMFWNCYCRLIYFDTSRSYLDKRQYIVRKIWPQIDKKFAQSVLPSLTEFCESYFPEEMDTLEEMFTEEP
MGSDKIHHHHHHMDLEIATVKAILTEHDLLKEIKSTKTVANTGISYDSRTVKPGYMFFCKGNFKPEYLSVARQNGATTYVSENEYPEGTGMTAIIVTNVTRAMAVLSATYYNFPQNDLFIIGITGTKGKTSSAYFAHSILNQKYPNQVALFSTIDRIVGPKPEDQFKSDLTTPESMNLFHDMRVAVDNGMKYLVMEVSSQAYLRDRVYGLKFDCGIFLNITPDHIGRNEHKDFEDYLHCKLQLMVNSKRCIIDADTDRFDDVFGAAKATTDPEQIYLFSADVENGGVDFLIQDEEDDLTSNRFTLVESSSKAEAFHVAGDYDLNVAGDYNQSNATAAIIAAALADVTYQDAVLPLKSIVIPGRMEHLNVPGHGVVFVDYAHNYASLHALLKFLKHQYHDGKVIVVVGSPGDKGISRRAGFGQALSEQADIAYLTTDDPAFEDPEQIIQQIMDNIKPGTVEVRQVLDRHDAIEQAIMNSSEKDVVVLAGKGEDPYQKVGGVDTPWPTDMGVAEEVKRGLS
MGSDKIHHHHHHMDLENKFSYHFLEGLTLTEDGILTQGNEQVYIPQKELGVLIVLLESAGHVVLKDMIIESVWKNIIVSDESLTRCIYSLRCIFEKIGYDRCIETIYRKGYRFSGQVFKTKINEDNTSDYSIAIFPFTTSLNTLDPLILNQELVQIISNKKIDGLYTYPMAATNFCNDHISQNSFLSRFKPDYFVTGRINQNNAVNTLYIELIDAKNLFLIASNHLPVDELHNTSQFIIDNILQTVHKPERSVRLAKQDQGYKNHYLSDEMLAGKKELYDFTPESIYRAMTIFDRLQNKSDIQTLKTECYCLLAECHMSLALHGKSELELAAQKALELLDYVSDITTVDGKILAIMGLITGLSGQAKVSHILFEQAKIHSTDIASLYYYRALVHFHNEKIEEARICIDKSLQLEPRRRKAVVIKECVDMYVPNPLKNNIKLYYKETESESHRVIIDNILKLKQLTRICMR

From the DeepSol protein solubility set
